For assay [1], the target named is T1 scTCR with wild-type CDR loops (stabilized version), Y51A, soluble (human). Kind of assay: SPR. For orientation: Surface plasmon resonance follows binding to a sensor surface in real time, without labels.
For assay [2], the target named is T1-S18.45 Q31A scTv, yeast-displayed (human). Nature of the assay: flow cytometry on cells. A general note: A flow cytometer gives signals particle by particle.

“MART-1/HLA-A2 of the steady-state SPR (peptide variant not stated) (from UniProt P61769 21-119) (peptide-MHC)”: the Kd (usually a measure of binding affinity in units of concentration) in assay [1] was > 1 mM.

As to “MART-1/HLA-A2-biotin monomer (UV peptide exchange) (from UniProt P61769 21-119) (peptide-MHC)”, in assay [2], the other was > 15 fold.

For the origin of these results see PMC3844621.
